Assay [1] concerns the target T1, HLA-B*57:01 (human).
T1 construct: the method paragraph describes expression only for HLA-B*39:01; also called HLA-B*057:01
In words: refolding of HLA with synthetic peptide, size-exclusion chromatography (FIG. 4A). On the technique in general: In gel filtration, larger molecules generally elute earlier.

The target of assay [2] is T2, HLA-B*15:01 (human).
T2 construct: the method paragraph describes expression only for HLA-B*39:01
The assay is described as follows: refolding of HLA with synthetic peptide, size-exclusion chromatography (FIG. 4B).

B1: SEQ ID NO: 1 (THQGLSSPV), synthetic peptide derived from the infliximab light chain (peptide)
peptide: THQGLSSPV
notes: Synthetic peptide (Genscript) derived from infliximab; also called 3901_thq
As to B1, the binding result in assay [1] and in assay [2] was “no binding” in each case.

B2: SEQ ID NO: 2 (TKGPSVFPL), synthetic peptide derived from the infliximab heavy chain (peptide)
peptide: TKGPSVFPL
notes: Synthetic peptide (Genscript) derived from infliximab; also called 3901_tkg
For B2, the binding result in assay [1] and in assay [2] was “no binding” in each case.

The values above are taken from patent publication US20260007714A1 (TEN PEAKS, published 2026).
